Values joined by “and” are separate entries in the source; they are usually repeats but may differ in a detail not shown here. Identical values can stand only once.
Experiments:
[1] = molecular target: T1, recombinant human IL-12 (rhIL-12) (human, UniProt P29459 23-219; P29460 23-328); assay: cell-based or functional assay
T1 sequence (looked up) 1: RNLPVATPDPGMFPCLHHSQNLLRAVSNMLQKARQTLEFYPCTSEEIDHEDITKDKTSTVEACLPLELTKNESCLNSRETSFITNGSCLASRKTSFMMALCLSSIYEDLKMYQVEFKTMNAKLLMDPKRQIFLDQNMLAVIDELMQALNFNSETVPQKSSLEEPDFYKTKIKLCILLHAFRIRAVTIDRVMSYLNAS
T1 sequence (looked up) 2: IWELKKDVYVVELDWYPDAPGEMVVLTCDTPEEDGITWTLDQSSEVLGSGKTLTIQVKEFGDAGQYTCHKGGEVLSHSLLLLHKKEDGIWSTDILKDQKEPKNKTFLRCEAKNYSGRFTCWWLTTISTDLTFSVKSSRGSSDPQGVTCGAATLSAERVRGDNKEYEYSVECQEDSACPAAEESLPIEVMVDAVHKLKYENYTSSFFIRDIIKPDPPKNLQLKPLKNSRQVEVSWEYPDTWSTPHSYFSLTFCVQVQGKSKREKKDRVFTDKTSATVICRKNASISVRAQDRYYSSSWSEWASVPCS

[2] = molecular target: T1, recombinant human IL-12 (rhIL-12); assay: cell-based or functional assay; remark: listed apart in the source
[3] = molecular target: T1, recombinant human IL-12 (rhIL-12); assay: receptor binding assay, 125I-hIL-12 on PHA blasts
Description: PHA blast cells isolated as described above, were washed once and resuspended in binding buffer to a cell density of 2×10⁷ cells/ml. […] The cell pellet was examined for cell bound radioactivity using a gamma counter. […] Incubations were carried out in duplicate.

murine IL-12 = molecular target: T2, murine IL-12 (mouse, UniProt P43431 23-215; P43432 23-335); assay: neutralization bioassay with non-human IL-12 (murine 2D6 cell proliferation)
T2 construct: Purified or recombinant murine IL-12 (R&D Systems, Cat. No. 419-ML in the BIAcore test); also called mouse IL-12; rmIL12
T2 sequence (looked up) 1: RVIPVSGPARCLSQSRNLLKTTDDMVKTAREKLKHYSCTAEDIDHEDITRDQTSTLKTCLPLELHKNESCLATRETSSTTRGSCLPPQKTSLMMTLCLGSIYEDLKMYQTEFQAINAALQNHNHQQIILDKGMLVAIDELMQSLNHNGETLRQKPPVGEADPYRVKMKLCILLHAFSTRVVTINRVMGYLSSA
T2 sequence (looked up) 2: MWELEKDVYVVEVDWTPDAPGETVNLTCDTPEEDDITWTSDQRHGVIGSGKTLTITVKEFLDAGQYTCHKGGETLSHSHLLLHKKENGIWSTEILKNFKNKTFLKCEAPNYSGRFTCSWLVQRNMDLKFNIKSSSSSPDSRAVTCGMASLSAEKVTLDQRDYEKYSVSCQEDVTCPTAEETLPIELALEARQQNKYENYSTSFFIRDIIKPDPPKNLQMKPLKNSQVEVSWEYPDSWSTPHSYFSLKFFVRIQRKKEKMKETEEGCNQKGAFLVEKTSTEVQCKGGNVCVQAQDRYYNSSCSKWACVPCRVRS
Description: 2D6 cells were washed once and resuspended in RPMI complete medium containinγβME to a cell density of 1×10⁵ cells/ml. […] The culture contents were harvested and counted by liquid scintillation counting. All samples were assayed in duplicate.

dog IL-12 = dog IL-12 (dog); assay: cell-based or functional assay

Binder	IFN-γ Assay IC50 [1]	PHA blast Assay IC50 [1]	PHA assay IC50 (M) p70:p40 1:0 [2]	PHA assay IC50 (M) p70:p40 1:50 [2]	IC50 [3]	binding result (murine IL-12)	activity on dog IL-12 in the neutralization bioassay, against human IL-12 (dog IL-12)
J695 (antibody, human IgG1, V domains shown, human IgG1 with lambda light chain) VH: QVQLVESGGGVVQPGRSLRLSCAASGFTFSSYGMHWVRQAPGKGLEWVAFIRYDGSNKYYADSVKGRFTISRDNSKNTLYLQMNSLRAEDTAVYYCKTHGSHDNWGQGTMVTVSS VL: QSVLTQPPSVSGAPGQRVTISCSGSRSNIGSNTVKWYQQLPGTAPKLLIYYNDQRPSGVPDRFSGSKSGTSASLAITGLQAEDEADYYCQSYDRYTHPALLFGTGTKVTVLG	5.8 pM and 4.3 pM	5.5 pM and 4.4 pM	1e-11 M	3.5e-11 M	50 pM		
J695 (antibody, V domains shown, Human IgG1 with lambda light chain (detected with anti-human lambda); Made in CHO or COS cells) VH: QVQLVESGGGVVQPGRSLRLSCAASGFTFSSYGMHWVRQAPGKGLEWVAFIRYDGSNKYYADSVKGRFTISRDNSKNTLYLQMNSLRAEDTAVYYCKTHGSHDNWGQGTMVTVSS VL: QSVLTQPPSVSGAPGQRVTISCSGSRSNIGSNTVKWYQQLPGTAPKLLIYYNDQRPSGVPDRFSGSKSGTSASLAITGLQAEDEADYYCQSYDRYTHPALLFGTGTKVTVLG						no binding	~35 fold

Source: patent US20150037348A1 (AbbVie / Abbott, published 2015)
